For the experiment, the target named is H7N9 A/Shanghai/2/2013 hemagglutinin trimer, wild type (influenza A virus A/Shanghai/02/2013 (H7N9)) (UniProt R4NN21). Briefly: cryo-EM structure.

Consider “H7N9 A/Shanghai/2/2013 hemagglutinin trimer, wild type (from UniProt R4NN21) (natural protein)”, for which the stoichiometry N stood at 3.

The values above are taken from article PMC9271601.
